The target in this test is Bovine Hsc70 (1–554) (bovine, UniProt P19120 1-554). As to the kind of experiment: co-sedimentation.
Chain of Bovine Hsc70 (1–554) (P19120 1-554): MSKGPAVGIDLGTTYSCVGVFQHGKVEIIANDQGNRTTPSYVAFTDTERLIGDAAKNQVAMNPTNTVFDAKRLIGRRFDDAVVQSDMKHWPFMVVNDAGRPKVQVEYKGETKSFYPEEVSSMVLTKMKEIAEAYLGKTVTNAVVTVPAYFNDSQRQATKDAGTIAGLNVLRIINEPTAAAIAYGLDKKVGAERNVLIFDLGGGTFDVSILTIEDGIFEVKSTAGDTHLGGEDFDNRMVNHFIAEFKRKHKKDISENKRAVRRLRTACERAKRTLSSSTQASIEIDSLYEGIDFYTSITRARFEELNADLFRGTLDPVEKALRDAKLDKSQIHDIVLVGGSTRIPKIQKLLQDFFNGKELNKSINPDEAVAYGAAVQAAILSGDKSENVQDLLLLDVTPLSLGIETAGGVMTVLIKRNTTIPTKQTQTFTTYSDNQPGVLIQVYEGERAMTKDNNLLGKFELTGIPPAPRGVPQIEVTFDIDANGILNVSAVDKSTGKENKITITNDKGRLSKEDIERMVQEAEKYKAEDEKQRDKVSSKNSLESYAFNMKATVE

B1: Bovine auxilin (547–910) (domain or fragment, UniProt Q27974 547-910, looked up)
chain: PSGPTSTQSTPRRSATSTSASPTLRVGEGATFDPFGAPSKPSGQDLLGSFLNTASASSDPFLQPTRSPSPTVHASSTPAVNIQPDVSGAWDWHTKPGGFGMGSKSAATSPTGSSHGTPTHQNKPQTLDPFADLGTLGGSSFASKPSTPTGLGGGFPPLSSPQKASPQPMGGGWQQGGGYNWQQTQSKPQSSMPHSSPQNRPNYNVSFSSMPGGQNERGKAAANLEGKQKAADFEDLLSGQGFNAHKDKKGPRTIAEMRKEEMAKEMDPEKLKILEWIEGKERNIRALLSTMHTVLWAGETKWKPVGMADLVTPEQVKKVYRKAVLVVHPDKATGQPYEQYAKMIFMELNDAWSEFENQGQKPLY
On to B1, for which the binding result is reported as “binds”.
